# Test results reported in article PMC4480739, “Oncogenic mutations of thyroid hormone receptor β” (Oncotarget, 2015).
# Key:
# [1] = biological target: GST fused p85α-CSH2 (C-terminal Src-homology 2 domain of p85α) (UniProt P27986); experiment: pull-down; GST-CSH2 (~5 μg, E. coli expressed) incubated with equal amounts of in vitro translated TRβ1 or mutants, in the presence of T3; bound receptor detected by Western blot with anti-TRβ1; band intensities quantified with ImageJ
# [2] = biological target: T1, GST fused p85α-CSH2 (C-terminal Src-homology 2 domain of p85α) (UniProt P27986 623-706); experiment: as above; conditions: one partner purified
# T1 construct: C-terminal SH2 (CSH2) domain of the p85α regulatory subunit of PI3K; the limits 623-706 are told of the domain in the discussion, not in the methods of this assay; also called GST–CSH2; CSH2-conjugated to GST; source: E. coli expressed
# T1 sequence (P27986 623-706): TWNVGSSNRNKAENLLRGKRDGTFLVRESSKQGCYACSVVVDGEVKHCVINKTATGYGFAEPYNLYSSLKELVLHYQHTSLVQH
# Sequence of GST fused p85α-CSH2 (C-terminal Src-homology 2 domain of p85α) (UniProt P27986) (P27986 623-706): as above
# Sequence of in vitro translated PV (P10828 whole entry): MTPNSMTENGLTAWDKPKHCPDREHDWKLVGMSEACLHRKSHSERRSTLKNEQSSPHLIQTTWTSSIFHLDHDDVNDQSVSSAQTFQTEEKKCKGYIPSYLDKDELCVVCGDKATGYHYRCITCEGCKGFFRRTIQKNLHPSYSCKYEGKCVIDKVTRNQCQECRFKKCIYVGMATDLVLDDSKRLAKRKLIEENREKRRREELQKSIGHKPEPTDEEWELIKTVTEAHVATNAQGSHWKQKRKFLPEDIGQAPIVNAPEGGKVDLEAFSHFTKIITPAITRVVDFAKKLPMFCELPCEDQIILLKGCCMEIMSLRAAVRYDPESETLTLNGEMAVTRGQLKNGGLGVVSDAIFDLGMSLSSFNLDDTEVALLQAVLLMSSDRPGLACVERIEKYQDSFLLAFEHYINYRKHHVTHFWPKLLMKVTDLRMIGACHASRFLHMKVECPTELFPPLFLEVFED
fold association relative to TRβ1 [1] [fold],fold association relative to TRβ1 [2] [fold],Molecule
3,,in vitro translated PV (from UniProt P10828 1-461) (receptor)
,3,"in vitro translated AM (receptor, human, UniProt P10828 1-461, looked up, source: in vitro translated (TNT T7 quick coupled kit, Promega)) MTPNSMTENGLTAWDKPKHCPDREHDWKLVGMSEACLHRKSHSERRSTLKNEQSSPHLIQTTWTSSIFHLDHDDVNDQSVSSAQTFQTEEKKCKGYIPSYLDKDELCVVCGDKATGYHYRCITCEGCKGFFRRTIQKNLHPSYSCKYEGKCVIDKVTRNQCQECRFKKCIYVGMATDLVLDDSKRLAKRKLIEENREKRRREELQKSIGHKPEPTDEEWELIKTVTEAHVATNAQGSHWKQKRKFLPEDIGQAPIVNAPEGGKVDLEAFSHFTKIITPAITRVVDFAKKLPMFCELPCEDQIILLKGCCMEIMSLRAAVRYDPESETLTLNGEMAVTRGQLKNGGLGVVSDAIFDLGMSLSSFNLDDTEVALLQAVLLMSSDRPGLACVERIEKYQDSFLLAFEHYINYRKHHVTHFWPKLLMKVTDLRMIGACHCQPLPAHEGGMPTELFPPLFLEVFED"
